# According to patent US20240245793A1, “PSD-95 INHIBITORS AND USES THEREOF” (priority 2021, published 2024):
# B1: compound 15, NPEG4-(KETVV)2 fused to L-TAT (Ac-[…]-) (peptide)
# peptide: KETVV
# chain: […]
# modifications: not checked
# B2: compound 11, NPEG4-(KETLV)2 fused to L-TAT (Ac-[…]-) (peptide)
# peptide: KETLV
# chain: […]
# modifications: not checked
# B3: compound 17, NPEG4-(KETRV)2 fused to L-TAT (Ac-[…]-) (peptide)
# peptide: KETRV
# chain: […]
# modifications: not checked
# B4: compound 21, NPEG4-(VETVV)2 fused to L-TAT (Ac-[…]-) (peptide)
# peptide: VETVV
# chain: […]
# modifications: not checked
# B5: compound 13, NPEG4-(KETTV)2 fused to L-TAT (Ac-[…]-) (peptide)
# peptide: KETTV
# chain: […]
# modifications: not checked
# B6: compound 19, NPEG4-(ISTDV)2 fused to L-TAT (Ac-[…]-) (peptide)
# peptide: ISTDV
# chain: […]
# modifications: not checked
# Biological target: PDZ1-2 of PSD-95 (postsynaptic density protein-95), P78352
# Test: FP competition against fluorescent dimeric probe, Ki from IC50
# Sequence of PDZ1-2 of PSD-95 (postsynaptic density protein-95), P78352 (P78352 61-249 limits assumed): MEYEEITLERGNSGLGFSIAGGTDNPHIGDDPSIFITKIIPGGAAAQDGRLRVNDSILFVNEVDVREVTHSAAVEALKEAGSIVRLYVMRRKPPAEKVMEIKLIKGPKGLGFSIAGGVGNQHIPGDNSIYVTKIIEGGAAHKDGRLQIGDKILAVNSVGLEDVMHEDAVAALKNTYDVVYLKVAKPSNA
row,Binder,Ki [nM]
1,B1,2.1
2,B2,5.4
3,B3,6.6
4,B4,15.8
5,B5,6.5
6,B6,36.1
